One assay deals with human fibrin (human) (UniProt P02671).
A further assay addresses porcine fibrin (porcine) (UniProt P14460).

Our source for the K m of overall fibrin breakdown by plasmin (clot lysis time by turbidity against fibrinogen 0 to 5 µM, batroxobin clots, 5 nM active plasmin) values is paper PMC12817190.

Sequence of UniProt P02671 (P02671 36-866, chain 1 of 3): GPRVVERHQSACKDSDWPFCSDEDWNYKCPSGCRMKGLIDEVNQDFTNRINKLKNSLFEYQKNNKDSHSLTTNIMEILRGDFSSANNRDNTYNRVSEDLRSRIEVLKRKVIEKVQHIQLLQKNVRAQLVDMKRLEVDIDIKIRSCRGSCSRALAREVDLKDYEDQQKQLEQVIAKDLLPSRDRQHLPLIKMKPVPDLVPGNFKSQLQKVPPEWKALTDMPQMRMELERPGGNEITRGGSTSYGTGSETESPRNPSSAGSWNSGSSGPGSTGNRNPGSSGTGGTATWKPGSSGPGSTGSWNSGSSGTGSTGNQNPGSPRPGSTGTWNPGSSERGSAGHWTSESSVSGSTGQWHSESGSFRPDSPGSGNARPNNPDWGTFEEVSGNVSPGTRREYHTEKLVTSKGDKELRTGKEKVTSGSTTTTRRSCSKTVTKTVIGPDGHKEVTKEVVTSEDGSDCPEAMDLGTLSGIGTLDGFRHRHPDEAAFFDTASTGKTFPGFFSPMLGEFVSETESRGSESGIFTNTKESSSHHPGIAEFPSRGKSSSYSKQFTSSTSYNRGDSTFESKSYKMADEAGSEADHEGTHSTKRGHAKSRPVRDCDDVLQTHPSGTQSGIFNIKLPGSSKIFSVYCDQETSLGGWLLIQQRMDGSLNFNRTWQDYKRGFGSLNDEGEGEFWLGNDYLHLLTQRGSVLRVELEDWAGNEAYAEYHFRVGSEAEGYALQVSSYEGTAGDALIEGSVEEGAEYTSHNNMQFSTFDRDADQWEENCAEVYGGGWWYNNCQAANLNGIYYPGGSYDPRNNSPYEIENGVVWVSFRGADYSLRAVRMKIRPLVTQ
Sequence of UniProt P02671 (P02675 45-491, chain 2 of 3, further chain): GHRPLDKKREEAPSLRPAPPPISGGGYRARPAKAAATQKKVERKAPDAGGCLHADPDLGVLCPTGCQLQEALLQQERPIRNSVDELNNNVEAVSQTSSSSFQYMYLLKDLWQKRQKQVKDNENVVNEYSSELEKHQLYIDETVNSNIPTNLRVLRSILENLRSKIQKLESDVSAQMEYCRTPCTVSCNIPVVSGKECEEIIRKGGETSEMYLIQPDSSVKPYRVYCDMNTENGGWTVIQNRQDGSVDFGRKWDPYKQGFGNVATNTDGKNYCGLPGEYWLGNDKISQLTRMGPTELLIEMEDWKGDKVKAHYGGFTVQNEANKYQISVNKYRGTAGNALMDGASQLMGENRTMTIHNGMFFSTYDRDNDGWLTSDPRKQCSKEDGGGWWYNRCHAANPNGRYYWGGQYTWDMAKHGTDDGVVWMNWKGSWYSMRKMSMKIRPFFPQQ
Sequence of UniProt P02671 (P02679 other isoform, or with tags, fused parts or gaps, chain 3 of 3, further chain): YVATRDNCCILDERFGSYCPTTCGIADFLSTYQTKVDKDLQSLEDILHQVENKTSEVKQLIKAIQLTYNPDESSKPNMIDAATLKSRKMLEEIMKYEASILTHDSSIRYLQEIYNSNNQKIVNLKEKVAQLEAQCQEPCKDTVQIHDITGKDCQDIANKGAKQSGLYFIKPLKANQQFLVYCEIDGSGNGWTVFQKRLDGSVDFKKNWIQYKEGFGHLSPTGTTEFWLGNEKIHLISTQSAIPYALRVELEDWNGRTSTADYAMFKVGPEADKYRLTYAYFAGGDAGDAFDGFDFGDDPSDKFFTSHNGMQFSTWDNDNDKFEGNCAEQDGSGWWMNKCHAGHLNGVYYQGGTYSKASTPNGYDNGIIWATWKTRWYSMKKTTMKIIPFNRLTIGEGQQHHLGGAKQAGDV

Turning to “porcine plasmin (from UniProt P06867 20-809; P06867 20-809) (enzyme)”, the K m of overall fibrin breakdown by plasmin (clot lysis time by turbidity against fibrinogen 0 to 5 µM, batroxobin clots, 5 nM active plasmin) with human fibrin (human) was 3.1 µM; with porcine fibrin (porcine) it was 4.9 µM.
The corresponding values for “human plasmin (from UniProt P00747 20-580) (enzyme)” are 1.1 µM and 1.3 µM.
